Assay results reported in publication PMC7689096, “Cyclizing Painkillers: Development of Backbone-Cyclic TAPS Analogs” (Frontiers in Chemistry, 2020).
Where “and” joins values, the source holds several entries; their conditions need not be identical. Equal values may be shown once. Numbered stars: 1 amine (or outer) side, 2 acyl side, 3 side chain; on linkers, the order of the positions; unused ones are H or OH. Bridge positions count the residues as written; N and C are the ends. Square brackets hold non-standard residues; d marks the D form. Primed or numbered codes have the meaning given here. Ends that are not written are not given here. dR(Nα-6-aminohexyl) = N=C(N)NCCC[C@H](C(=O)[*:2])N(CCCCCCN[*:3])[*:1]; dR(Nα-3-aminopropyl) = N=C(N)NCCC[C@H](C(=O)[*:2])N(CCCN[*:3])[*:1]; N(6-aminohexyl)Gly = O=C(CN(CCCCCCN[*:3])[*:1])[*:2]; NGly(3-aminopropyl) = O=C(CN(CCCN[*:3])[*:1])[*:2]; N(2-Aminoethyl)Gly = O=C(CN(CCN[*:3])[*:1])[*:2]; Gly(N-2-aminoethyl)′ = not defined here; CO = O=C([*:1])[*:2]; Nlys = NCCCCNCC(=O)O; Sar = CNCC(=O)O

What was measured:
[1] = target: T1, δ (DOP, OPRD2) opioid receptor (Mus musculus, UniProt P32300); test: DOP opioid receptor functional antagonism in NG-10815 cells; type: cell-based, rat; settings: Between 10^−9-10^−6 M, percent inhibition of control specific agonist response
T1 construct: NG-10815 cells which express significant endogenous levels of δ opioid receptors; host or cells: NG-10815 (NG108-15) mouse N18TG2 neuroblastoma x rat C6-BU-1 glioma hybrid cells
Procedure: (§1) Peptides were tested for μ (MOP, OPRM1) and δ (DOP, OPRD2) opioid receptor activation functional agonism and antagonism using CHO cells expressing human recombinant μ receptors and NG-10815 cells which express significant endogenous levels of δ opioid receptors. The cultures were incubated for 10 min at 37°C followed by impedance measurements of CHO cells and cAMP was assayed by the HTRF method using NG-10815 cells, according to CEREP standard assay protocols. The respective reference, non-peptide small molecules were tested concurrently with the TAPS analogs. The agonist compounds were: DPDPE (selective agonist of DOP receptor) and DAMGO (high MOP receptor specificity) and the antagonist compounds were: Naltrindole (selective DOP receptor antagonist) and CTOP (MOP receptor antagonist). […] The results are expressed as a percentage of respective control-specific response. […] These findings indicate that TAPS cyclic peptides are MOP selective full agonists. […] The cyclic TAPS peptide had lower activity than the linear parent TAPS peptide (90 ± 5%) – a finding that can be attributed to their restricted conformation relative to the flexible linear peptide conformation.
(§2) The respective reference, non-peptide small molecules were tested concurrently with the TAPS analogs; Agonist compounds DPDPE ([D-Pen2,D-Pen5]enkephalin), selective agonist of DOP receptor at 2 × 10^−9 M and DAMGO ([D-Ala2, N-MePhe4, Gly-ol] enkephalin), high MOP specificity at 2.5 × 10^−9 M; Antagonist compounds: naltrindole 7-(cyclopropylmethyl)-6,7-dehydro-4,5α-epoxy-3,14-dihydroxy-6,7-2′,3′-indolomorphinan hydrochloride, selective DOP antagonist, 5 × 10^−10 M and CTOP (D-Phe-Cys-Tyr-D-Trp-Orn-Thr-Pen-Thr-NH2), MOP antagonist at 3.4 × 10^−7 M. Depending on the assay volume and solvent tolerance, the stock solutions were diluted to [100×], [333×] or [1,000×] in 100% DMEM solvent, then either added directly or further diluted to [10×] or [5×] in H2O or Hank's balanced salt solution (HBSS) before addition to the assay well (final solvent concentration kept constant). The cultures were incubated for 10 min at 37°C followed by impedance measurements using cellular dielectric spectroscopy of CHO cells and cAMP was assayed by homogeneous time resolved fluorescence (HTRF) method using NG-10815 cells, according to CEREP standard assay protocols (https://euroscreenfast.com/assays/opioid-orl1-camp-fast-0360c; https://euroscreenfast.com/assays/opioid-op1-delta-camp-fast-0379c). The results (mean of three experiments) are expressed as a percent of control specific agonist response [(measured TAPS specific response/control specific agonist response) × 100] and as a percent inhibition of control specific agonist response [100 – (measured TAPS specific response/control specific agonist response) × 100] obtained in the presence of the TAPS compounds. Results showing a stimulation or an inhibition lower than 25% were considered not significant and mostly attributable to variability of the signal around the control level. Results showing a stimulation or an inhibition higher than 50% were considered to represent significant effects of the TAPS compounds.

[2] = target: T2, human recombinant μ (MOP, OPRM1) receptor (Homo sapiens, UniProt P35372); test: MOP opioid receptor functional agonism in CHO cells expressing human recombinant μ receptors; type: cell-based; settings: At 10^−6 M, percent of control specific agonist response, values lower than 25% not significant
T2 construct: host or cells: CHO cells
Procedure: as §1
Evaluation of the Agonist Activity of Compounds at the Human μ Receptor in Transfected CHO Cells, Determined by Measuring Their Effects on cAMP modulation Using the HTRF Detection Method
Thereafter, the adenylyl cyclase activator NKH 477 is added at a final concentration of […]. Following 10 min incubation at 37°C, the cells are lysed and the fluorescence acceptor (D2-labeled cAMP) and fluorescence donor (anti-cAMP antibody labeled with europium cryptate) are added. After 60 min at room temperature, the fluorescence transfer is measured at lex = 337 nm and lem = 620 and 665 nm using a microplate reader (Rubystar, BMG). The cAMP concentration is determined by dividing the signal measured at 665 nm by that measured at 620 nm (ratio). The results are expressed as a percent of the control response to 1 μM DAMGO. The standard reference agonist is DAMGO, which is tested in each experiment at several concentrations to generate a concentration-response curve from which its EC50 value is calculated.
as §2, with “Results showing a stimulation or an inhibition lower than 25% were considered not significant and mostly attributable to variability of the signal around the control level. Results showing a stimulation or an inhibition higher than 50% were considered to represent significant effects of the TAPS compounds.” left out

[3] = target: T2, human recombinant μ (MOP, OPRM1) receptor; test: MOP opioid receptor functional antagonism in CHO cells expressing human recombinant μ receptors; type: cell-based; settings: Between 10^−9-10^−6 M, percent inhibition of control specific agonist response, values lower than 25% not significant
Procedure: as §1, §2

[4] = target: T1, δ (DOP, OPRD2) opioid receptor; test: DOP opioid receptor functional agonism in NG-10815 cells; type: cell-based, rat; settings: At 10^−6 M, percent of control specific agonist response
Procedure: as §1
Evaluation of the Agonist Activity of Compounds at the Rat delta2 Receptor Endogenously Expressed in NG-10815 Cells, Determined by Measuring Their Effects on Impedance Modulation Using the CellKey (CDS) Detection Method
Cells are seeded onto 96-well plate coated with fibronectin at 2 × 10^5 cells/well in HBSS buffer (Invitrogen) + 20 mM HEPES (Invitrogen) with 0.1% BSA and allowed to equilibrate for 60 min at 37°C before the start of the experiment. Plates are placed onto the system and measurements are made at a temperature of 37°C. […] Impedance measurements are monitored for 10 min after ligand addition. The standard reference agonist is DPDPE, which is tested in each experiment at several concentrations to generate a concentration-response curve from which its EC50 value is calculated.
as §2, with “The results (mean of three experiments) are expressed as a percent of control specific agonist response [(measured TAPS specific response/control specific agonist response) × 100] and as a percent inhibition of control specific agonist response [100 – (measured TAPS specific response/control specific agonist response) × 100] obtained in the presence of the TAPS compounds. Results showing a stimulation or an inhibition lower than 25% were considered not significant and mostly attributable to variability of the signal around the control level. Results showing a stimulation or an inhibition higher than 50% were considered to represent significant effects of the TAPS compounds.” left out

[5] = target: human recombinant μ opioid receptor (human) (UniProt P35372)
human recombinant μ opioid receptor (human), sequence (P35372 whole entry): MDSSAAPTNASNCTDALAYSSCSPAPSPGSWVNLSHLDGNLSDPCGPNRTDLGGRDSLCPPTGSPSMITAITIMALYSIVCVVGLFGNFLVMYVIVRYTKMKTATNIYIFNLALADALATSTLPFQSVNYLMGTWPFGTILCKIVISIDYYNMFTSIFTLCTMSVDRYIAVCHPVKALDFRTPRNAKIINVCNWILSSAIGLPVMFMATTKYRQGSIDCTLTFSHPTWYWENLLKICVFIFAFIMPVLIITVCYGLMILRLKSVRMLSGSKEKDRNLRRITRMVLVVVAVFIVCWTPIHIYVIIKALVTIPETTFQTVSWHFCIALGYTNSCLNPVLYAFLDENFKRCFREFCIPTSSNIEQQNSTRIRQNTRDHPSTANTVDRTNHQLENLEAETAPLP

T1 sequence (P32300 whole entry): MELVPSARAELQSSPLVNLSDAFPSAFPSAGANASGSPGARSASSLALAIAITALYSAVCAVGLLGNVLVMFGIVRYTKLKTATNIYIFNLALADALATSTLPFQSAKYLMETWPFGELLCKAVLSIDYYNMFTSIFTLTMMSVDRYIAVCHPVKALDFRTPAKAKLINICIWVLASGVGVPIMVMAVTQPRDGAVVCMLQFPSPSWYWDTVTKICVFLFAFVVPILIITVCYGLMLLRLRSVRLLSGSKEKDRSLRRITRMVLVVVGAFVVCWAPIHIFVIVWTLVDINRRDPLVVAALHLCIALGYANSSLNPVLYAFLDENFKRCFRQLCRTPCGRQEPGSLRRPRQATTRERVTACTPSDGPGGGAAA
T2 sequence (P35372 whole entry): as the sequence (P35372 whole entry) above

Row | Molecule | DOP antagonist (%) [1] [%] | MOP agonist (%) [2] | MOP agonist (%) at 10^-6 M: percent of control specific agonist response (DAMGO), CHO cells expressing human recombinant μ receptors; values lower than 25% are not significant [5] [%] | further results
1 | TAPS c(2-3): backbone-cyclic TAPS analog, urea bridge; n-m alkyl chain lengths on nitrogens of Gly and Arg; ring size 15 (YRF[N(2-Aminoethyl)Gly]-NH2; bridge 2-4 via CO; not fully specified (residue 2); also: urea bridge between the two N-alkyl chains) | 2 | 24% |  | MOP antagonist (%) [3]: 1%
2 | TAPS c(3-6): backbone-cyclic TAPS analog, urea bridge; ring size 19 (YRF[NGly(3-aminopropyl)]-NH2; bridge 2-4 via CO; not fully specified (residue 2); also: urea bridge between the two N-alkyl chains) | 1 | 1% |  | MOP antagonist (%) [3]: 2%
3 | TAPS c(4-3): backbone-cyclic TAPS analog, urea bridge; ring size 17 (YRF[Nlys]-NH2; bridge 2-4 via CO; not fully specified (residue 2); also: urea bridge between the two N-alkyl chains) | 0 | 63 ± 5% and 63^** % |  | DOP agonist (%) [4]: 11%
4 | TAPS c(4-6): backbone-cyclic TAPS analog, urea bridge; ring size 20 (YRF[Nlys]-NH2; bridge 2-4 via CO; not fully specified (residue 2); also: urea bridge between the two N-alkyl chains) | 3 | 1% |  | MOP antagonist (%) [3]: 1%
5 | TAPS c(6-3): backbone-cyclic TAPS analog, urea bridge; ring size 19 (YRF[N(6-aminohexyl)Gly]-NH2; bridge 2-4 via CO; not fully specified (residue 2); also: urea bridge between the two N-alkyl chains) | 8 | 75 ± 9% and 75^** % |  | DOP agonist (%) [4]: 19%
6 | Y[dR]F[Sar] [linear peptide Tyr-D-Arg-Phe-Sar (TAPS)] |  |  |  | MOP agonist (%) at 10^-6 M: percent of control specific agonist response (DAMGO), CHO cells expressing human recombinant μ receptors [5]: 90%
7 | Y[dR(Nα-3-aminopropyl)]F[Gly(N-2-aminoethyl)′] (bridge 2-4 via CO; not fully specified) [TAPS c(2-3)] |  |  | 24 | 
8 | Y[dR(Nα-6-aminohexyl)]F[Gly(N-2-aminoethyl)′]-NH2 (bridge 2-4 via CO; not fully specified) [TAPS c(2-6)] |  |  |  | MOP agonist (%) at 10^-6 M: percent of control specific agonist response (DAMGO), CHO cells expressing human recombinant μ receptors [5]: 48%
9 | Y[dR(Nα-3-aminopropyl)]F[Gly(N-3-aminopropyl)] (bridge 2-4 via CO; not fully specified) [TAPS c(3-3)] |  |  | 1 | 
10 | Y[dR(Nα-6-aminohexyl)]F[Gly(N-3-aminopropyl)] (bridge 2-4 via CO; not fully specified) [TAPS c(3-6)] |  |  | 1 | 
11 | Y[dR(Nα-3-aminopropyl)]F[Gly(N-4-aminobutyl)] (bridge 2-4 via CO; not fully specified) [TAPS c(4-3)] |  |  |  | MOP agonist (%) at 10^-6 M: percent of control specific agonist response (DAMGO), CHO cells expressing human recombinant μ receptors [5]: 63%
12 | Y[dR(Nα-6-aminohexyl)]F[Gly(N-4-aminobutyl)] (bridge 2-4 via CO; not fully specified) [TAPS c(4-6)] |  |  | 1 | 
13 | Y[dR(Nα-3-aminopropyl)]F[Gly(N-6-aminohexyl)] (bridge 2-4 via CO; not fully specified) [TAPS c(6-3)] |  |  |  | MOP agonist (%) at 10^-6 M: percent of control specific agonist response (DAMGO), CHO cells expressing human recombinant μ receptors [5]: 75%
14 | Y[dR(Nα-6-aminohexyl)]F[Gly(N-6-aminohexyl)] (bridge 2-4 via CO; not fully specified) [TAPS c(6-6)] |  |  | 21 | 
